# Results as given in paper PMC6431256 (Biochemistry, 2018).
# Non-standard residues stand in square brackets, D forms with d. No end group written: not given here. pT = C[C@@H](OP(=O)(O)O)[C@H](N)C(=O)O; pS = N[C@@H](COP(=O)(O)O)C(=O)O
# B1: histone H1.1 phosphopeptide KKAVKpSPAKAKAW (peptide)
# peptide: KKAVK[pS]PAKAKAW
# B2: histone H1.4 phosphopeptide KATGAApTPKKSAKW (peptide)
# peptide: KATGAA[pT]PKKSAKW
# How the values were obtained:
# [1] = target: Pin1 WW domain (Pin1WW, residues 1–41) (human, UniProt Q13526 1-41); assay: NMR titration
# Pin1 WW domain (Pin1WW, residues 1–41), sequence (Q13526 1-41): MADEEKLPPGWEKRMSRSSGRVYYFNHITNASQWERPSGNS
# full-length Pin1 = full-length Pin1 (human, UniProt Q13526 1-163); assay: NMR titration
# full-length Pin1, sequence (Q13526 whole entry): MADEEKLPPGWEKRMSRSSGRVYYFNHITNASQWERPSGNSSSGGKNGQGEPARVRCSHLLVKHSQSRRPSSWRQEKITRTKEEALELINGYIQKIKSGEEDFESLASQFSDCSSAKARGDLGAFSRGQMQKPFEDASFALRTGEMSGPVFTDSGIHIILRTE
binder,measurement,setting,value
B1,Kd,[1],890 µM
same,Kd,full-length Pin1,500 µM
B2,Kd,[1],111 µM
same,Kd,full-length Pin1,180 µM
